Assay results taken from patent US6455049B1, “Biologically active and particularly peptide molecules having a potentiating effect on growth hormone biological activity” (priority 1996, dated 2002).

Tested on: IGF-1
Assay: Plasma IGF-1 level in hypophysectomised female Wistar rats (radioimmunoassay)
Assay type: in vivo
Details: dose of 100 μg/rat
Description: In vivo experiments performed in the context of the present invention were carried out on 19 batches of hypophysectomised female rats of the Wistar strain, each batch comprising 5 rats. These animals were hypophysectomized when 4 weeks old and then kept under observation for one week. During an additional week of observation, the animals were weighed and those having gained more than 5 grams […] were discarded. In fact, it was assumed that the hypophysectomy of these animals was incomplete. They are thus not suitable for use in the framework of the present experiments.
Each animal selected receives a T4 thyroid hormone and cortisone replacement treatment. These hormones are administered subcutaneously each day at 50 μg/100 g body weight in the case of cortisone and 1 μg/100 g body weight in the case of T4. Usually a slight weight gain is observed following the injection of these hormones. This hormone supplementation treatment is administered for one week during which the animals continue to be weighed daily. These animals are from then on suitable for use in a comparative evaluation of the somatogenic activity of bGH incubated with or without different peptide constructions having the sequence 104-113 or the sequence 35-53 in the case of the GH peptide described in EP 284406. […]

B1: bovine growth hormone (protein)
chain: AFPAMSLSGLFANAVLRAQHLHQLAADTFKEFERTYIPEGQRYSIQNTQVAFCFSETIPAPTGKNEAQQKSDLELLRISLLLIQSWLGPLQFLSRVFTNSLVFGTSDRVYEKLKDLEEGILALMRELEDGTPRAGQILKQTYDKFDTNMRSDDALLKNYGLLSCFRKDLHKTETYLRVMKCRRFGEASCAF
- IGF level relative to baseline levels in control hypophysectomized animals: eight times higher than the baseline levels
- mean IGF levels (hypophysectomized rats): 60 ng/mL
